The Immune Epitope Database (IEDB)

How the values were obtained:
Assay in all cases: IEDB peptide-MHC binding, purified MHC/competitive/radioactivity; filed as Kd, often an IC50 or EC50 that approximates it; ≥ and ≤ were set here for values at or beyond the usual limits of such assays
HLA-A*31:01 = biological target: HLA-A*31:01
HLA-A*11:01 = biological target: HLA-A*11:01
HLA-A*33:01 = biological target: HLA-A*33:01
HLA-A*68:01 = biological target: HLA-A*68:01
HLA-A*03:01 = biological target: HLA-A*03:01
[1] = source organism: SARS coronavirus Tor2
[2] = source organism: Vaccinia virus WR
[3] = source organism: Dengue virus 1 Singapore/S275/1990
[4] = source organism: Dengue virus 1 Brazil/97-11/1997
[5] = source organism: Mammarenavirus guanaritoense
[6] = source organism: Mammarenavirus machupoense
[7] = source organism: Mammarenavirus whitewaterense
[8] = source organism: Dengue virus 4 Philippines/H241/1956
[9] = source organism: Vaccinia virus Copenhagen
[10] = source organism: Dengue virus 3 Martinique/1243/1999
[11] = source organism: Dengue virus 2 Jamaica/1409/1983

## QTMLFTMLR
HLA-A*31:01; [1]
  Kd: 0.000162 µM
HLA-A*11:01; [1]
  Kd: 0.00181 µM
HLA-A*33:01; [1]
  Kd: 0.00124 µM
HLA-A*68:01; [1]
  Kd: 0.00261 µM
HLA-A*03:01; [1]
  Kd: 0.0435 µM

## QTVNICIFY
HLA-A*31:01; [2]
  Kd: 0.839 µM
HLA-A*11:01; [2]
  Kd: 0.0399 µM
HLA-A*33:01; [2]
  Kd: 10.5 µM
HLA-A*68:01; [2]
  Kd: 0.00196 µM
HLA-A*03:01; [2]
  Kd: 0.828 µM

## RIMQRGLLGR
HLA-A*31:01; [3]
  Kd: 0.00116 µM
HLA-A*03:01; [3]
  Kd: 0.00556 µM

## RNKKPRICTR
HLA-A*31:01; [4]
  Kd: ≥ 70 µM

## RSIAMLKSK
HLA-A*31:01; [2]
  Kd: 1.5 µM
HLA-A*11:01; [2]
  Kd: 0.00311 µM
HLA-A*33:01; [2]
  Kd: ≥ 77.7 µM
HLA-A*68:01; [2]
  Kd: 0.637 µM
HLA-A*03:01; [2]
  Kd: 0.216 µM

## RSKIEVGIRH
HLA-A*31:01; [5]
  Kd: 1.63 µM
HLA-A*11:01; [5]
  Kd: ≥ 29 µM
HLA-A*33:01; [5]
  Kd: ≥ 70 µM
HLA-A*68:01; [5]
  Kd: ≥ 22.2 µM
HLA-A*03:01; [5]
  Kd: 13.7 µM

## RTELGVEFLK
HLA-A*31:01; [1]
  Kd: 1.35 µM
HLA-A*11:01; [1]
  Kd: 0.0524 µM
HLA-A*33:01; [1]
  Kd: 15.9 µM
HLA-A*68:01; [1]
  Kd: 9.72 µM
HLA-A*03:01; [1]
  Kd: 0.962 µM

## SFIISTLNK
HLA-A*31:01; [2]
  Kd: 0.0051 µM
HLA-A*11:01; [2]
  Kd: 0.00535 µM
HLA-A*33:01; [2]
  Kd: 8.11 µM
HLA-A*68:01; [2]
  Kd: 0.00998 µM
HLA-A*03:01; [2]
  Kd: 0.0574 µM

## SLFYTFAISY
HLA-A*31:01; [2]
  Kd: 5.78 µM
HLA-A*11:01; [2]
  Kd: 0.00918 µM
HLA-A*33:01; [2]
  Kd: ≥ 31.8 µM
HLA-A*68:01; [2]
  Kd: 1.32 µM
HLA-A*03:01; [2]
  Kd: 0.00362 µM

## SLIKTILASY
HLA-A*31:01; [2]
  Kd: 4.57 µM
HLA-A*11:01; [2]
  Kd: 1.05 µM
HLA-A*33:01; [2]
  Kd: ≥ 43.3 µM
HLA-A*68:01; [2]
  Kd: 1.73 µM
HLA-A*03:01; [2]
  Kd: 0.0975 µM

## SNIQFNISK
HLA-A*31:01; [6]
  Kd: 1.74 µM
HLA-A*11:01; [6]
  Kd: 0.0122 µM
HLA-A*33:01; [6]
  Kd: 10.9 µM
HLA-A*68:01; [6]
  Kd: 0.015 µM
HLA-A*03:01; [6]
  Kd: 4.91 µM

## SRLFEDLVWK
HLA-A*31:01; [7]
  Kd: 8.59 µM
HLA-A*11:01; [7]
  Kd: 1.27 µM
HLA-A*33:01; [7]
  Kd: ≥ 70 µM
HLA-A*68:01; [7]
  Kd: 0.605 µM
HLA-A*03:01; [7]
  Kd: 0.661 µM

## SSKIRWIVER
HLA-A*31:01; [8]
  Kd: 0.0171 µM
HLA-A*33:01; [8]
  Kd: 0.389 µM

## SSMLNIMNR
HLA-A*31:01; [4]
  Kd: 11.8 µM
HLA-A*11:01; [4]
  Kd: 0.0104 µM
HLA-A*68:01; [4]
  Kd: 0.00735 µM

## SSSLDQTHIK
HLA-A*31:01; [9]
  Kd: 0.868 µM
HLA-A*11:01; [9]
  Kd: 0.00492 µM
HLA-A*33:01; [9]
  Kd: ≥ 26 µM
HLA-A*68:01; [9]
  Kd: 0.85 µM
HLA-A*03:01; [9]
  Kd: 0.09 µM

## STAWLCALGK
HLA-A*31:01; [1]
  Kd: 0.271 µM
HLA-A*11:01; [1]
  Kd: 0.00035 µM
HLA-A*33:01; [1]
  Kd: 9.43 µM
HLA-A*68:01; [1]
  Kd: 0.0048 µM
HLA-A*03:01; [1]
  Kd: 0.0216 µM

## SYTQVCDHR
HLA-A*33:01; source organism: Dengue virus 1 Nauru/West Pac/1974
  Kd: 0.0432 µM

## TAASAAQRR
HLA-A*68:01; [10]
  Kd: 0.0249 µM

## TAMAFHLTTR
HLA-A*31:01; [11]
  Kd: 0.00904 µM
HLA-A*33:01; [11]
  Kd: 0.0184 µM
HLA-A*68:01; [11]
  Kd: 0.00855 µM

## TAVAPSMTMR
HLA-A*68:01; [11]
  Kd: 0.0188 µM

## TSADLTVEK
HLA-A*11:01; [10]
  Kd: 0.185 µM
HLA-A*68:01; [10]
  Kd: 0.0155 µM

## TSIFAGHLK
HLA-A*11:01; [10]
  Kd: 0.0391 µM
HLA-A*68:01; [10]
  Kd: 0.0043 µM

## TTRLENIMWK
HLA-A*11:01; [8]
  Kd: 0.271 µM

## TTRLENVMWK
HLA-A*11:01; source organism: Dengue virus 4 Dominica/814669/1981
  Kd: 0.59 µM

## VSIMIEEVMR
HLA-A*68:01; [4]
  Kd: 0.202 µM

## VTCAMFTCKK
HLA-A*11:01; [11]
  Kd: 0.0977 µM
HLA-A*03:01; [11]
  Kd: 0.0867 µM
